Source: PMC11098746 (2024)
No end group written: not given here.

Legend:
ADP315 = molecular target: T1, ADP315; test: AVEXIS screen signal:noise (double-corrected)
T1 chain: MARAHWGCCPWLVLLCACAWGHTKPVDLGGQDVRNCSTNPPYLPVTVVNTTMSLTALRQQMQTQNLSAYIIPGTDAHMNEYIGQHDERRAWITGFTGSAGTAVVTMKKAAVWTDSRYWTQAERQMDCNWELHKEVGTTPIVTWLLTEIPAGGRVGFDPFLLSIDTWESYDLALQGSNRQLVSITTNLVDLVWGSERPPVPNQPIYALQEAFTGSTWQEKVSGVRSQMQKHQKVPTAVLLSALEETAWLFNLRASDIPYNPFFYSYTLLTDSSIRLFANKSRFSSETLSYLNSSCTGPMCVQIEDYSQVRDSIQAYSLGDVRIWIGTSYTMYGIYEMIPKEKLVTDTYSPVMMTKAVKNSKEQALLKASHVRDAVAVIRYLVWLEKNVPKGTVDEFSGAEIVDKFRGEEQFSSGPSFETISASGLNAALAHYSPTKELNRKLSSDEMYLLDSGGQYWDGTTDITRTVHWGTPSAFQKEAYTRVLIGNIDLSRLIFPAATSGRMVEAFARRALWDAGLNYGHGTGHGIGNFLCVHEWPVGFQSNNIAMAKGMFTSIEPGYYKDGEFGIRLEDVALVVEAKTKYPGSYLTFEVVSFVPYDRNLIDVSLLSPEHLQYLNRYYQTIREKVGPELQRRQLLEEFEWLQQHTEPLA

FGFR4 ectodomain = FGFR4 ectodomain (Homo sapiens, UniProt P22455); test: AVEXIS normalised luminescence
ADP339 = molecular target: T2, ADP339; test: AVEXIS screen signal:noise (double-corrected)
T2 chain: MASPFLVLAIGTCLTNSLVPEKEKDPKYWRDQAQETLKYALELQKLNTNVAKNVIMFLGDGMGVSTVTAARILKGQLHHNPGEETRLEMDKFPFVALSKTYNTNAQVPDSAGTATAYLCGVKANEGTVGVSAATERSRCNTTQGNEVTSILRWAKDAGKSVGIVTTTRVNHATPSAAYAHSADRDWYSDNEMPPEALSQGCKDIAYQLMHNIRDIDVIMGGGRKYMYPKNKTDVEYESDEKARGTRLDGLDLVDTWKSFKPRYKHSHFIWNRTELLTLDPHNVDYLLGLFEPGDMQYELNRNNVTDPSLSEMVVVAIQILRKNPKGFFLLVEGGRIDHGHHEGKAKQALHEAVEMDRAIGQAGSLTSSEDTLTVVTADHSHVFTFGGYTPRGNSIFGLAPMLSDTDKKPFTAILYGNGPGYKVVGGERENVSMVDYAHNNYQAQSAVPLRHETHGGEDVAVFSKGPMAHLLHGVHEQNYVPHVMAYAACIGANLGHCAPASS

ADP293 = molecular target: T3, ADP293; test: AVEXIS screen signal:noise (double-corrected)
T3 chain: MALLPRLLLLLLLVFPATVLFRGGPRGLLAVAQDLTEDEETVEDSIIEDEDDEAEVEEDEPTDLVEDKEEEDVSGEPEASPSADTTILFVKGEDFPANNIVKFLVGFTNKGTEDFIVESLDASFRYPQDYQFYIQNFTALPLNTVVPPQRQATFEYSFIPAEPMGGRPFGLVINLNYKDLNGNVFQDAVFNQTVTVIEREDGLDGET

ADP369 = test: AVEXIS screen signal:noise (double-corrected)

B1: ADP258 (protein)
chain: MGFHIQRYIAMMGRGINPKTWKKLWVDSKNKQIIHVYNDVAEFMNNQIAQVVRVYQYRY
modifications: also: human Fc-tagged dimer
binding score (ADP315): 6.28

B2: 21 (protein)
chain: SPGNDNNNVNNDGVVHVLSKNIDVKNLQGTFYEIATNAADKIFPGLACRCTKYEFSGLKRDGNLGYVLINFACARNFIFGEKKSEMTFKLILNKPLDENTATVEEFNAAIYLVQGNQQILLNGNINIIYAELNEQNEFEHLILGGQKSIEPMIIMSKYRTVLLDTYNKLINSLYLAGYEPSLLTWPFIIQTDQTFCD
modifications: bait human Fc-tagged dimer
binding score (FGFR4 ectodomain): 1.31

B3: 19 (protein)
chain: KNSDTKNNAYNDYYNTYLSKIHSFKAPFNVENLENGWNVDYSSVSTNKHVVLIPSIYNRRGVLYNKNPINSDNFIIEFNFFMERKYYKEKIDEKYYKDEKNDVHEIVYKTNSDDNLATSNKANNKEQKQIKRNGFALWILKDPFVIKEAGSNVNLVLQEEEYNIFGYKNRFNGIGILFQLKKSTNKANNKANNNNNYYYYNNYNDILNVAIILNNGDKSINSDDFTIFKNIPIDMIMINNLIHTKIICNKKEIIIAFYYPKSNNYINTLIMKNNIATENYIAFTSFNYKEDDNKNIDYNDVNNKYYENQNGYLPTFVGIKQVLTFNLNNNNNNNNNININEANINNNNYNNNNNNDNNKINYDQNYNKDISANDINAAFNDVLNNINPEKNTINQAIDVLNSITKLLQKFMNHQINSEKKLLQNINILNEKLQFVQTELKVIKKNLANQAEEPKNLQKMFSTELTGLKNLFHTHTQHHKKNIEDITNKLTKKIERNNELKILTEKAQKLEQIINK
modifications: bait human Fc-tagged dimer
binding score (FGFR4 ectodomain): 1.47

B4: ADP181 (protein)
chain: SSNDKNKINKNNMPLQRGASNLKDINIHNVEKKSNMESVNNNINNAACSKNLNANKVPNVAHTGVNKKGETKNEEVEKEENENEEIEKEEIENEENQQNEEDENEENQQNEEDENEENQQMNVNVDVSAEKKNKELPEEKKELQKNSEKNINKEVIKDSNKDNTFNFHKNINTAFNKNKNIYNNNNNNNNNNKAFIEKKEEAIDMKKTHCSNNNKMCKYNNMNNHMSTNKNNNQIFEESKQNVNKPIYNLKSLGNNAFKNDEKYNENDYKNNHDDDKKKYTDDSNEENIYEERNQKILLIHLLKNIKELLNRQRQNFNNFLSFLSENYQSYEKFYKSQKYQNGKNYIDKLDQQGELKNVAVVTHSFLDMSKAANGKKDKNGVFVKLMNDQNDDGDDTKDGDDTKDEDDHKNEDDHKNEDDHKNEDDHKNEDDHKNGDDNKNGDDHKNGDDNKNGDDDNGKKSHDISDIKNIIDTILQSDDITDEQKKYLEIIKKILDLEEDVLNKEKEQLQLNKNIIEVLMGKSDELRNIAVNLKNGNGDNEASQRVDLAQNIVSNLLNFAVQLKNTGNIVYNNIQGQGELLQSIEKNIDKAENDLKKSTSVNTAFTPKNVPNTEQNDQETQTDDDINDADIDENNNANDKNNCHMYKKNNCHMYKKNNCKKYFLNSHYNNYLCKKQKKYNKNDMGNKQKDNKKFKLNEAMKNHFYNIFVKETVMLKKLYKVLFELF
modifications: bait human Fc-tagged dimer; N-glycosylation sequons mutated in Plasmodium baits
binding score (ADP339): 6.19

B5: ADP188 (protein)
chain: QDEKSVKNICVCDFTDKLNFLPLEKTKILCELKPQYGEDIKIIANKEYEINCMNNAKVFCPLKDTFINNANIKLYSPKLHFEIKDITHKGKNAALYYLKIDEEASDIFFSCSIKPKQVSGLLEGEVRVNLKKHINEEYSIFNEEEDVHVCDFSKGNLDITPSAGFYLKNSRNVACIYRVIPNKLFLIKLPKLDIVTEKLLPSIVNCLSEFSFINFALKHVQEGDNYISFNVIFGEFKKHFNLACSLDLSDFQQEPCNLGKTANIAFIFSK
modifications: bait human Fc-tagged dimer; N-glycosylation sequons mutated in Plasmodium baits
binding score (ADP293): 5.5

B6: ADP186 (protein)
chain: YNLNNDLSKNNNFALNTYVRKDDVEDDSKNEIVDNIQKMVDDFSDDIGFVKTSMREVLLDTEASLEEVSDHVVQNIAKYSLTIEEKLNLFDGLLEEFIENNKGLISNLAKRQQKLKGDKIKKVCDLILKKLKKLENVNKLIKYKIILKYGNKDNKKEMIQTLKNEEGLSDDFKNNLANYETEQNNDDIKEIELVNFISTNYDKFVVNLEDLNKELLKDLNMALS
modifications: bait human Fc-tagged dimer; N-glycosylation sequons mutated in Plasmodium baits
binding score (ADP369): 5.22

B7: 13 (protein)
chain: YLSSENQKKTIATVHNNARTNTLKKNNANNNNANDIFGLSPSEVPNLIDDEEEYEILEGVKNNADLTRSTNIDHPSPSSTMIDLDNIITEISKLKKKKLKKEMNNKLEQQTNQNNNAIHHNNENEINTFTQNIKTNSNELKNQDSSNSLISTNSNTMDELLLYSTNSEDNLDISFGELQLYENSDEDTSDYEYVNEDYSVNHIFSNDAEESFNILEDVENIALSSSNRYQYSPIGPYKKKHTKVFENFKMTRNYDEFLKLYNLKDSSDNQEEYYELLAGEPFKLNSYYYRDVKYENVKKYIFKEIYDNIQNIATENKIIVSKKEELFFYFIKSLLKNNFICLSYEEEENLLSESKLLLEAMISKKIQ
modifications: bait human Fc-tagged dimer
binding score (FGFR4 ectodomain): 1.16

B8: ADP175 (protein)
chain: KVYQGQFYLKKNEKIHYLTKFSCNIGTCQFSIKMKLRDNIAAKLLNNYYKLNNKALKEMENDKDDGNNHNNNKYDDDNNNNNNRANKLLHMDYDNAYYVLSNQDLEYIPQRITLMQDIEQRYVNKNDKCYAFGNLKNSHMFNIPFYFKYSDLVNSKTYNLKNFINNKYSMSFNAIHSELKNNKLLQSEILNYGPILNEKNSNYAYKEIYAKTTHRVHVWFLMFDDCYDNFIRNLKLNIKTKLAYWEYLLHASKKFDISSLNDMDIKQDTSYNDFQNEETEKDIYSKENINNNNNNNMNNNMNEKKNKAIFYKSFNFDKITLLENPKRFLFLEEQFTKSEINDISFFLKYYQFKKMKNFNNMYNNLYKNGYYEQVIDYIYQNEGFHIEYEVNIFQTNKAHFSYE
modifications: bait human Fc-tagged dimer; N-glycosylation sequons mutated in Plasmodium baits
binding score (ADP315): 5.79

B9: 24 (protein)
chain: FKGNYGEANFAFFQATPASHIEEPQKTESTDAQSNIAQNEEINNAKPLQENIANNQQNSNEQQNNNEQQNNIEQQNNNIQQNNIDTSISHVPNDAIKNPIDNSNIANLDKSNDANNVIKHEENNQAKENNLETIKHTEPLTNQNTNEVKINDHNEHEKNTEENKIEEQYNNINHHSHDINKNQAINNNMNNENADKNVPHLDQSAMSNEKHINEHTTNHPIESHTGENNHDKINEPIPIEHATTPTNEPIPIEHAATPTNEPIPIEHAATPTNEPIHIEHVATPANEPTHSEHATTTTNEPIHIEHAATPTNEHIHNEHATTTTNEPTHNEHAATITHEPTHNEHTTTPTNEPIHNEHATTPTNEPIPIEHIATPANEPTHNEHATTTTNEPTHNEHTTTPTNEPIHNEHATTPTNEPIPIEHIATPANEPTHNEHATTTTNEPTHNEHATTTTNEPTHNEHATTTTNEPIHNEHATATTNEATHNEHATTTTNEPTHNEHSTTPTNEATHSENAATSTNEQHSHDQNTEVHPNDKLALVPFQGIKNPIPSNEAQPIISFPNEDDNHAQNEGSINAPSEGEHNNADNKEGPIITPLEGEQAGTAHKEDVTHKHMVGEHVPPQKTHHGPIITPVGGNHVPPQTHHAHIITPVGGEHAHGQGNNDATYVTMNTDESSSSDTKGEHSNLRSYNKNMNNNHAQRDQYDSDTLNSEGSDDAYSSMQQNFEKNGIDSFKGKGLHVSLRERIIIEIMESAKNGIDGLLKLKDSKDSGKLFMEALEKLNINMKDLKKDKNLISLEVYDKILSTMFKILTEMSFYEDSKFYETLGIKKDILNQALKDIKIKMLRKLGVSYSRLPPIIKHTEGKCAIKDIIISISSKELAQRMAIMFTKWLAPDEYGAVVDYENNVELNVLCSGAPILIQQWKYYQNMLGFEEDKDHAYLGLIDELLVMNKRYSQNKDYVETLEKIKKSKVFKHCTKIMRIGGKVSSVPFNYENVKKPSSSIIGSLGNLIKANIATYYKATAQRINSYFHYTEKKSKKSSPLKIISVCTLLHLTDMLYKCSDENSNGVMDLYNLQLNTLNMKGKMVLQYLVHLKFLTQEKKNQLKEICEPQNGLIDETLTKMLILLSTDSHELLSHELENKGFDEDYIQDEIKNINEADNNIRDKEEDDAEKMIFDDL
modifications: bait human Fc-tagged dimer
binding score (FGFR4 ectodomain): 1
